Source: the supplement of paper PMC7125110
± gives the standard error. Fewer inactive variants are shown than the library holds.

B1: glmS ribozyme (parent)
chain: AUAAAAGCGCCAGAACUACAGAAAUGUAGUUGACGAGGAGGAGGUUUAUCGAAUUUUCGGCGGAUGCCUCCAAA

Experiments:
Details in all cases: with glucosamine-6-phosphate
glucosamine-6-phosphate [1] = variants of: B1; assay: self-cleavage kobs at 640 uM GlcN6P; higher = faster cleavage; RNA array
Method in brief: (§1)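 Tiles of sequenced MiSeq chips were imaged over ~14 h at 37 °C. On them, barcoded ribozyme variants had been transcribed in situ by E. coli RNA polymerase and were tracked via a hybridised Cy3 probe while glucosamine-6-phosphate (40 μM to 10 mM) in HEPES/KCl/Mg(OAc)2 buffer flowed in. Per-tile medians, normalised to baseline and to non-cleaving reference variants, were fit to one- or two-exponential decays for kobs, and weighted Michaelis–Menten fits gave kcat and KM.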

glucosamine-6-phosphate [2] = variants of: B1; assay: self-cleavage kobs at 2500 uM GlcN6P; higher = faster cleavage; RNA array
Method in brief: as §1

glucosamine-6-phosphate [3] = variants of: B1; assay: self-cleavage kobs at 10000 uM GlcN6P; higher = faster cleavage; RNA array
Method in brief: as §1

Variant	self-cleavage kobs at 640 uM GlcN6P (glucosamine-6-phosphate [1]) [s⁻¹]	self-cleavage kobs at 2500 uM GlcN6P (glucosamine-6-phosphate [2]) [s⁻¹]	self-cleavage kobs at 10000 uM GlcN6P (glucosamine-6-phosphate [3]) [s⁻¹]
G29C A33G C68G	6.58e-05 ± 3e-05		
C50G G63C C67U	0.000103 ± 4.4e-05		
C10U G43A C50A	< 1e-05		
C34G G63A C67A	< 1e-05	< 1e-05	
C10U A36G C58U	< 1e-05		
U30G G43A C67A	9.35e-05 ± 3e-05	0.000157 ± 5.9e-05	
A6G A33G U47A	< 1e-05		
C8U A33C G35C U56G U65C	< 1e-05	< 1e-05	
C34U G38U A42G	< 1e-05	< 1e-05	
A15U C16U G51C C58G C61G C67U	0.000417 ± 8.1e-05		
U30A G44C U45G A48C U57A	< 1e-05		
G32A A36U G62U C70G	0.000218 ± 8.5e-05		
C8G G32C G38C U54G	< 1e-05	< 1e-05	< 1e-05
A42C G43U U57A	< 1e-05	< 1e-05	< 1e-05
C10U U30C G40U U55C G60A C71U	< 1e-05		
A36C A48U U54G G60U G63U A64G	< 1e-05		
G66U C68G C71A	5.91e-05 ± 2.3e-05		
A39G G60U C67G	< 1e-05	< 1e-05	< 1e-05
A36C C67A	< 1e-05		
A42U G43A G51A C68U	< 1e-05		
G29A A42G U56G	0.000337 ± 0.00011	0.00148 ± 0.00036	
A15U G37A	0.000117 ± 2.4e-05	0.000103 ± 2.8e-05	0.000568 ± 0.00011

Variant	self-cleavage kobs at 640 uM GlcN6P (glucosamine-6-phosphate [1]) [s⁻¹]	self-cleavage kobs at 2500 uM GlcN6P (glucosamine-6-phosphate [2]) [s⁻¹]	self-cleavage kobs at 10000 uM GlcN6P (glucosamine-6-phosphate [3]) [s⁻¹]
A12U A48U C68A C70G	< 1e-05		
A6U A12G A39G G63C	< 1e-05	< 1e-05	
G9A C16U U30G G38U	< 1e-05	< 1e-05	
A15G U57A	0.000105 ± 2e-05	0.000107 ± 2.8e-05	0.000392 ± 5.3e-05
A6G U54A U57G	< 1e-05		
A15U U30A A53U C58A U65C U69A C71G	4.92e-05 ± 2e-05		
A6G U30G G38U U55G	< 1e-05	< 1e-05	
G32U C34G G41C A53U A64C U65G	< 1e-05	< 1e-05	
G35A A39C U47C U56G	< 1e-05		
G13C G43A U49G A52G	< 1e-05	< 1e-05	
C10G G40A C70U	< 1e-05	< 1e-05	
C58U A64C	< 1e-05		
G44C U56C G59U	< 1e-05	< 1e-05	
U49C G51A	< 1e-05		< 1e-05
A14U G29C A64G	< 1e-05		
G40U U45C C67G	4.79e-05 ± 1.9e-05	7.13e-05 ± 1.7e-05	
C10G A48U A52U	< 1e-05		
G7A C8U U31C A52C	< 1e-05	< 1e-05	
U47C U69G	4.72e-05 ± 1.9e-05	0.000104 ± 2.3e-05	6.08e-05 ± 1.5e-05
U55A C67A C70G	0.000113 ± 2.4e-05	7.88e-05 ± 1.6e-05	
G13U A15G A52C	< 1e-05	< 1e-05	
A36U C61U C71U	< 1e-05		< 1e-05

Variant	self-cleavage kobs at 640 uM GlcN6P (glucosamine-6-phosphate [1]) [s⁻¹]	self-cleavage kobs at 2500 uM GlcN6P (glucosamine-6-phosphate [2]) [s⁻¹]	self-cleavage kobs at 10000 uM GlcN6P (glucosamine-6-phosphate [3]) [s⁻¹]
C8U U30A G62C	< 1e-05		
C16G G62U G66C	< 1e-05		
G40U G43U U49C	< 1e-05	< 1e-05	
U31A U69C C71G	8.22e-05 ± 1.8e-05	6.01e-05 ± 1.7e-05	3.9e-05 ± 1.6e-05
C10G A33G	< 1e-05		< 1e-05
C8G A42U	< 1e-05		< 1e-05
G9U U30C U57A	< 1e-05	< 1e-05	
U30G U49A G66C	< 1e-05		
A36G G37U A42C G44U	< 1e-05		< 1e-05
U31C G38A C71U	< 1e-05		
C11G G38A G43C	< 1e-05	< 1e-05	
A48U U57G G62U	< 1e-05	< 1e-05	
A14G G35C A48U	< 1e-05		
C50A C58U C67G	8.03e-05 ± 3.9e-05		
C8U A14G G32U A33C	< 1e-05		
A12U A15G A42U	0.000151 ± 4.6e-05		
C11A G59U C70G C71U	0.000202 ± 5.2e-05	0.00032 ± 6.5e-05	0.00015 ± 4.4e-05
A6G G43U U69G	< 1e-05		
A15U C34U G41U C71U	< 1e-05		
A15U U31C G41U C70U	3.6e-05 ± 1.4e-05		6.84e-05 ± 1.3e-05
A12C U31C A48C A52U	< 1e-05	< 1e-05	
